In patent US12281340B2, “Method of producing N-acyl-amino group-containing compound” (AJINOMOTO CO., INC., priority 2018, dated 2025):

B1: AtGH3-12: 4-substituted benzoates-glutamate ligase GH3.12 from Arabidopsis thaliana, His-tagged (protein, listed as Arabidopsis thaliana)
chain: MKPIFDINETFEKQLKDLTSNVKSIQDNLLEEIITPNTKTEYLQRFLIDRFDKELFKKNVPIVSYEDIKPYLDRVVNGESSDVISARTITGFLLSSGTSGGAQKMMPWNNKYLDNLTFIYDLRMQVITKHVKGVEEGKGMMFLFTKQESMTPSGLPARVATSSYFKSDYFKNRPSNWYYSYTSPDEVILCPNNTESLYCHLLCGLVQRDEVVRTGSIFASVMVRAIEVLKNSWEELCSNIRSGHLSNWVTDLGCQNSVSLVLGGPRPELADTIEEICNQNSWKGIVKRLWPNTKYIETVVTGSMGQYVPMLNYYCNDLPLVSTTYGSSETTFGINLDPLCKPEDVSYTFMPNMSYFEFIPMDGGDKNDVVDLEDVKLGCTYEPVVTNFAGLYRMRVGDIVLVTGFYNNAPQFKFVRRENVVLSIDSDKTNEEDLFKAVSQAKLVLESSGLDLKDFTSYADTSTFPGHYVVYLEVDTKEGEEKETAQFELDEEALSTCCLVMEESLDNVYKRCRFKDGSIGPLEIRVVRQGTFDSLMDFFISQGASTGQYKTPRCIKSGKALQVLETCVVAKFFSI
modifications: His-tag
notes: 4-substituted benzoates-glutamate ligase GH3.12 from Arabidopsis thaliana, His-tagged
B2: AtGH3-5: indole-3-acetic acid-amido synthetase GH3.5 from Arabidopsis thaliana, His-tagged (protein, listed as Arabidopsis thaliana)
chain: MPEAPKKESLEVFDLTLDQKNKQKLQLIEELTSNADQVQRQVLEEILTRNADVEYLRRHDLNGRTDRETFKNIMPVITYEDIEPEINRIANGDKSPILSSKPISEFLTSSGTSGGERKLMPTIEEELDRRSLLYSLLMPVMSQFVPGLENGKGMYFLFIKSESKTPGGLPARPVLTSYYKSSHFKERPYDPYTNYTSPNETILCSDSYQSMYSQMLCGLCQHQEVLRVGAVFASGFIRAIKFLEKHWIELVRDIRTGTLSSLITDPSVREAVAKILKPSPKLADFVEFECKKSSWQGIITRLWPNTKYVDVIVTGTMSQYIPTLDYYSNGLPLVCTMYASSECYFGVNLRPLCKPSEVSYTLIPSMAYFEFLPVHRNNGVTNSINLPKALTEKEQQELVDLVDVKLGQEYELVVTTYAGLCRYRVGDLLRVTGFKNKAPQFSFICRKNVVLSIDSDKTDEVELQNAVKNAVTHLVPFDASLSEYTSYADTSSIPGHYVLFWELCLDGNTPIPPSVFEDCCLAVEESFNTVYRQGRVSDKSIGPLEIKIVEPGTFDKLMDYAISLGASINQYKTPRCVKFAPIIELLNSRVVDSYFSPKCPKWVPGHKQWGSN
modifications: His-tag
notes: indole-3-acetic acid-amido synthetase GH3.5 from Arabidopsis thaliana, His-tagged

How the values were obtained:
Format in all cases: biochemical
[1] = Quantification of produced N-acylamino acid (UV 210 nm) using purified acylamino acid synthetase; conditions: 5 mM L-Asp, 5 mM sodium fatty acid, 200 μg/mL enzyme, 25° C., 24 hours
Description: 0.1 mL of a reaction solution containing 50 mM Tris-HCl, 5 mM amino acid, 5 mM sodium fatty acid, 10 mM ATP, 10 mM MgCl2, 1 mM DTT, 200 μg/mL of the purified enzyme, pH 8.0 was incubated at 25° C. for 24 hours. As amino acids, L-Asp was used in AtGH3-6, OsGH3-8, AtGH3-5, AtGH3-12, and Gly or L-Ala was used in CfHP. After completion of the reaction, 0.4 mL of the reaction stop solution (1% (v/v) phosphoric acid, 75% (v/v) methanol) was added, and the mixture was filtrated through the filter followed by being subjected to the UPLC-MS analysis to quantify the produced N-acylamino acid by detection at UV 210 nm. The condition for the UPLC-MS analysis is as descried in Example 2. As a result of the analysis, 3.9 mM of Nα-capryloyl-L-aspartic acid, 4.5 mM of Nα-caprinoyl-L-aspartic acid and 2.2 mM of Nα-lauroyl-L-aspartic acid were detected when AtGH3-6 was used; 4.3 mM of Nα-capryloyl-L-aspartic acid, 4.6 mM of Nα-caprinoyl-L-aspartic acid and 3.5 mM of Nα-lauroyl-L-aspartic acid were detected when OsGH3-8 was used; 4.1 mM of Nα-capryloyl-L-aspartic acid, 4.6 mM of Nα-caprinoyl-L-aspartic acid and 2.5 mM of Nα-lauroyl-L-aspartic acid were detected when AtGH3-5 was used; 1.6 mM of Nα-capryloyl-L-aspartic acid, 0.6 mM of Nα-caprinoyl-L-aspartic acid and 0.2 mM of Nα-lauroyl-L-aspartic acid were detected when AtGH3-12 was used; 4.5 mM of Nα-capryloylglycine, 4.6 mM of Nα-caprinoylglycine, 0.1 mM of Nα-lauroylglycine, 3.1 mM of Nα-capryloyl-L-alanine, 3.6 mM of Nα-caprinoyl-L-alanine and 0.4 mM of Nα-lauroyl-L-alanine were detected when CfHP was used.

[2] = Synthesis of N-lauroylamino acid / N-lauroylamino acid derivative using purified acylamino acid synthetase, UPLC-MS detection; set-up: key: +: Detected; −: Not detected; conditions: +ATP
Description: 0.2 mL of a reaction solution containing 50 mM Tris-HCl, 5 mM amino acid or D-amino acid derivative, 5 mM sodium laurate, 10 mM ATP, 10 mM MgCl2, 1 mM DTT, 200 μg/mL of the purified enzyme, pH 8.0 was incubated at 25° C. for 24 hours. After completion of the reaction, 0.8 mL of the reaction stop solution (1% (v/v) phosphoric acid, 75% (v/v) methanol) was added, and the mixture was filtrated through the filter followed by being subjected to the UPLC-MS analysis to detect a signal of a molecular weight corresponding to an N-lauroyl-amino acid or an N-lauroyl-amino acid derivative. The condition for the UPLC-MS analysis is as described in Example 2.
As a result of the UPLC-MS analysis, the signal of the molecular weight corresponding to the N-lauroyl-amino acid or the N-lauroyl-amino acid derivative was confirmed in the reaction solution containing the enzyme in combination with the amino acid or the amino acid derivative shown in Table 5 below.

[3] = Synthesis of N-caprinoyl-amino acid derivative, N-caprinoyl-D-amino acid and N-caprinoyl-peptide using purified acylamino acid synthetase, UPLC-MS detection; set-up: key: +: Detected; −: Not detected; conditions: +ATP
Outline: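 Purified enzyme (50 μg/mL) was incubated with 5 mM sodium caprate, 5 mM amino acid derivative, D-amino acid or peptide, 10 mM ATP, 10 mM MgCl2 and 1 mM DTT in 50 mM Tris-HCl, pH 8.0, for 24 h at 25 °C. After acidic methanol stop, UPLC-MS looked for the mass of the N-caprinoyl product.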

[4] = Synthesis of N-acylamino acids from various fatty acids using purified acylamino acid synthetase, UPLC-MS detection; set-up: key: +: Detected; −: Not detected
Outline: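 Purified enzyme (200 μg/mL) with 5 mM amino acid, 5 mM sodium fatty acid (3 mM palmitate or stearate, plus 10% methanol), 10 mM ATP, 10 mM MgCl2, 1 mM DTT in 50 mM Tris-HCl pH 8.0, shaken 24 h at 25 °C. Amino acid varied by enzyme; product mass detected by UPLC-MS (ESI-negative).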

[5] = substrates Gly and sodium laurate
[6] = substrates L-Ala and sodium laurate
[7] = substrates L-Arg and sodium laurate
[8] = substrates L-Asp and sodium laurate
[9] = substrates L-Glu and sodium laurate
[10] = substrates L-Lys and sodium laurate
[11] = substrates L-Thr and sodium laurate
[12] = substrates β-Ala and sodium laurate
[13] = substrates Carnosine and sodium caprate
[14] = substrates D-Ala and sodium caprate
[15] = substrates D-Asp and sodium caprate
[16] = substrates D-Cys and sodium caprate
[17] = substrates D-Glu and sodium caprate
[18] = substrates D-Ile and sodium caprate
[19] = substrates D-Lys and sodium caprate
[20] = substrates L-Asp-L-Phe and sodium caprate
[21] = substrates L-Gly-L-Gly and sodium caprate
[22] = substrates Sarcosine and sodium caprate
[23] = substrates Taurine and sodium caprate
[24] = substrates L-Asp and Capric acid
[25] = substrates L-Asp and Caproic acid
[26] = substrates L-Asp and Caprylic acid
[27] = substrates L-Asp and Lauric acid
[28] = substrates L-Asp and Linoleic acid
[29] = substrates L-Asp and Palmitic acid
[30] = substrates L-Asp and myristic acid

Molecule | Nα-caprinoyl-L-aspartic acid detected [1] | Nα-capryloyl-L-aspartic acid detected [1] | Nα-lauroyl-L-aspartic acid detected [1] | signal of molecular weight corresponding to N-lauroyl amino acid [2, 5] | signal of molecular weight corresponding to N-lauroyl amino acid [2, 6] | signal of molecular weight corresponding to N-lauroyl amino acid [2, 7] | signal of molecular weight corresponding to N-lauroyl amino acid [2, 8] | signal of molecular weight corresponding to N-lauroyl amino acid [2, 9] | signal of molecular weight corresponding to N-lauroyl amino acid [2, 10] | signal of molecular weight corresponding to N-lauroyl amino acid [2, 11] | signal of molecular weight corresponding to N-lauroyl amino acid [2, 12] | signal of molecular weight corresponding to N-caprinoyl compound [3, 13] | signal of molecular weight corresponding to N-caprinoyl compound [3, 14] | signal of molecular weight corresponding to N-caprinoyl compound [3, 15] | signal of molecular weight corresponding to N-caprinoyl compound [3, 16] | signal of molecular weight corresponding to N-caprinoyl compound [3, 17] | signal of molecular weight corresponding to N-caprinoyl compound [3, 18] | signal of molecular weight corresponding to N-caprinoyl compound [3, 19] | signal of molecular weight corresponding to N-caprinoyl compound [3, 20] | signal of molecular weight corresponding to N-caprinoyl compound [3, 21] | also measured
B1 | 0.6 mM | 1.6 mM | 0.2 mM | − | − | − | + | − | + | + | − | + | + | + | − | + | + | + | + | + | signal of molecular weight corresponding to N-caprinoyl compound [3, 22]: +; signal of molecular weight corresponding to N-caprinoyl compound [3, 23]: +; signal of molecular weight corresponding to N-acylamino acid [4, 24]: +; signal of molecular weight corresponding to N-acylamino acid [4, 25]: +; signal of molecular weight corresponding to N-acylamino acid [4, 26]: +; signal of molecular weight corresponding to N-acylamino acid [4, 27]: +; signal of molecular weight corresponding to N-acylamino acid [4, 28]: +; signal of molecular weight corresponding to N-acylamino acid [4, 29]: +; signal of molecular weight corresponding to N-acylamino acid [4, 30]: +
B2 | 4.6 mM | 4.1 mM | 2.5 mM | + | + | + | + | + | + | + | + | + | + | + | + | + | + | + | + | + | signal of molecular weight corresponding to N-caprinoyl compound [3, 22]: +; signal of molecular weight corresponding to N-caprinoyl compound [3, 23]: +; signal of molecular weight corresponding to N-acylamino acid [4, 24]: +; signal of molecular weight corresponding to N-acylamino acid [4, 25]: +; signal of molecular weight corresponding to N-acylamino acid [4, 26]: +; signal of molecular weight corresponding to N-acylamino acid [4, 27]: +; signal of molecular weight corresponding to N-acylamino acid [4, 28]: −; signal of molecular weight corresponding to N-acylamino acid [4, 29]: +; signal of molecular weight corresponding to N-acylamino acid [4, 30]: +
